Test [1] deals with Abeta 1-40 monomer (UniProt P05067). In words: MPA bead capture, Abeta 1-40 read-out of the CSF sample (noise).
The target of test [2] is Abeta 1-42 globulomer (UniProt P05067). Kind of test: 42 (globulomer) RLU over 40 (Abeta 1-40 monomer) RLU.
Test [3] shares this target. Kind of test: MPA bead capture, CSF + 1 ng/mL globulomer, Abeta immunoassay.
Test [4] concerns the target Abeta (1-42) aggregates from Alzheimer's Disease Brain Homogenate (human) (UniProt P05067). In words: MPA, AD brain homogenate in CSF, Abeta(1-42) ELISA. Background: ELISA stands for enzyme-linked immunosorbent assay.
Test [5] has the same target. In words: MPA, AD brain homogenate in plasma, Abeta(1-42) ELISA.

KKKKKK (peptide): the average RLU (40) in test [1] came to 197 RLU.

Take AAKKAA (peptide): the average RLU (40) in test [1] was 147 RLU.

For KKKFKF-link (peptide), the average RLU (40) in test [1] was found to be 192 RLU.

On to ANFFAHSS (peptide), for which the average RLU (40) in test [1] was 543 RLU.

Turning to AKKKKA (peptide), the average RLU (40) in test [1] worked out at 156 RLU.

Take DFKLNFKF (peptide): the average RLU (40) in test [1] came out at 260 RLU.

As for link-kkkfkf (peptide), the average RLU (40) in test [1] was 254 RLU. For the same substance, the 42:40 ratio in test [2] was found to be 6.3. The average RLU (42) in test [3] worked out at 1600 RLU.

As to AAKKKA (peptide), in test [1], the average RLU (40) was 159 RLU.

On to link-FKFKKK (peptide), for which the average RLU (40) in test [1] stood at 198 RLU.

For link-KKKFKF (peptide), the average RLU (40) in test [1] turned out to be 279 RLU.

On to AAAKAA (peptide), for which the average RLU (40) in test [1] was 134 RLU.

For the substance peptoid +++++++, the values for the limit of detection in test [4] and in test [5] were 1.6 mL/assay and 2.5 mL/assay, respectively.

The substance “biotinylated PSR1 (+++A+A) on streptavidin magnetic beads” yielded a limit of detection in test [5] of 3.8 mL/assay.

As for AKKKKK (peptide), the average RLU (40) in test [1] worked out at 176 RLU.

The values are drawn from patent US20130109581A1, “POSITIVELY CHARGED SPECIES AS BINDING REAGENTS IN THE SEPARATION OF PROTEIN AGGREGATES FROM MONOMERS” (priority 2009, published 2013).
